{"source": "paper PMC10357585", "substrate": "Nc1nc2nc[nH]c2c(=O)[nH]1", "assay": "Initial rate studies of TcHGXPRT, GMP biosynthesis", "assay_type": "biochemical, Trypanosoma cruzi", "conditions": "other: variable substrate PRPP (1–78 μM) at fixed Gua levels; pH 8.3; 37.0 °C", "data": [{"protein": "TcHGXPRT (Trypanosoma cruzi strain CL Brener) (protein) MISSQQAMVHVVSRNAEGVIVVDGKAYPMAEELVATESVIQRSIKAVAKQIADFYRPLSHRDTHGGGGVAPISDENPLIIISVLKGSYIFTADMVRYLGDYGLPHVVDFLRVASYRGTSSTNKMKLLAETQFKALRGKHVLILEDIVDSGKTLRYILDKVQREHQPATLKVCVLADKPGGRRVTMQPDFVCLTVPNKYVIGYGFEVNDRFRCFRHIFTLRPGEARRYPAHL", "values": [{"measurement": "Km", "result": "28 ± 3", "unit": "µM"}, {"measurement": "kcat", "result": "0.44 ± 0.02", "unit": "s⁻¹"}]}]}
